Laboratory results from publication PMC2568806, “Two Estrogen Response Element Sequences Near the PCNA Gene Are Not Responsible for Its Estrogen-Enhanced Expression in MCF7 Cells”.

How the values were obtained:
[1] = target: T1, recombinant estrogen receptor alpha (rERα) (UniProt P03372 1-595); experiment: EMSA, supershift; HESC nuclear extract; weaker than consensus ERE, stronger than PCNA-ERE2; 25 mM Tris-HCl pH 8.0, 50 mM KCl, 6.25 mM MgCl2, 10% glycerol, 0.5 mM DTT; 5 µg HESC nuclear extract + 170 nM rERα; 5% acrylamide gel in TBE; temperature not stated; settings: protein: commercial; chain copies: 2; blunt
T1 sequence (P03372 whole entry): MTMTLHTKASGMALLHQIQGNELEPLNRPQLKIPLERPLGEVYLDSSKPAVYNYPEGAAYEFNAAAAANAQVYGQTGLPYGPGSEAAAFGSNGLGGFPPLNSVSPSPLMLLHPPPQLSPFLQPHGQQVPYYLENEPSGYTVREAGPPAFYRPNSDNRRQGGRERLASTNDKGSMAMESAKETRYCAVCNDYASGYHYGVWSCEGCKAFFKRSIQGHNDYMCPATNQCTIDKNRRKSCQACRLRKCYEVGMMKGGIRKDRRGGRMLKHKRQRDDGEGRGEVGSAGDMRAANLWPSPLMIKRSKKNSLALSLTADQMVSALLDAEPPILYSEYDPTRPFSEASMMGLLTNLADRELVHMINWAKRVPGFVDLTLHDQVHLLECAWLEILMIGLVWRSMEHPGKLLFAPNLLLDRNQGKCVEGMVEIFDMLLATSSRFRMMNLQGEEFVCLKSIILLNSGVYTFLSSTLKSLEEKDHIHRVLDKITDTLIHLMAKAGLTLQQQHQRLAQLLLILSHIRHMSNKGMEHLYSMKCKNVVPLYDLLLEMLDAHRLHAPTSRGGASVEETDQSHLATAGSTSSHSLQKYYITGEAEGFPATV

[2] = target: T1, recombinant estrogen receptor alpha …; experiment: EMSA, supershift; HESC nuclear extract; 25 mM Tris-HCl pH 8.0, 50 mM KCl, 6.25 mM MgCl2, 10% glycerol, 0.5 mM DTT; 5 µg HESC nuclear extract + 170 nM rERα; 5% acrylamide gel in TBE; temperature not stated; settings: protein: commercial; chain copies: 2; label: 32P 5' end; blunt

B1: PCNA-ERE1 (dsDNA)
DNA 1: GGGAGTTTGAGGCCAGCCTGACCAACATTG
DNA 2: CAATGTTGGTCAGGCTGGCCTCAAACTCCC
[1]
  binding result: binds

B2: consensus ERE (dsDNA)
DNA 1: GGATCTAGGTCACTGTGACCCCGGATC
DNA 2: GATCCGGGGTCACAGTGACCTAGATCC
[2]
  binding result: binds
